Here are results for 1 substance from paper doi:10.1101/2025.11.11.687775.

The assay has as its target microtubules of primary rat hippocampal neurons (rat (endogenous in primary hippocampal neurons)) (UniProt P68370).

“GFP-tagged Tau lacking the microtubule-binding domain (delMTBD-Tau; PRR2-WT, MTBD deleted) (from UniProt P10636-6 1-383) (natural protein)” displayed an FRAP recovery plateau in rat neurons of 0.873.
